Literature values, collected in publication PMC6472649.
Like-named read-outs stand apart in the source and are kept apart here.

What was measured:
[1] = molecular target: SFLLRN ligand (Homo sapiens); test: FD-AFM
[2] = molecular target: SFLLRN ligand (Homo sapiens); test: FD-AFM; remark: listed apart in the source

Kd [1]: 40 µM
Kd [2]: 0.35 µM
Substance: PAR1 (from UniProt P25116)
